Molecular target: Pab1 monomer (Saccharomyces cerevisiae, UniProt P04147 1-577)
Assay: fluorescence anisotropy

Pab1 monomer, sequence (P04147 whole entry): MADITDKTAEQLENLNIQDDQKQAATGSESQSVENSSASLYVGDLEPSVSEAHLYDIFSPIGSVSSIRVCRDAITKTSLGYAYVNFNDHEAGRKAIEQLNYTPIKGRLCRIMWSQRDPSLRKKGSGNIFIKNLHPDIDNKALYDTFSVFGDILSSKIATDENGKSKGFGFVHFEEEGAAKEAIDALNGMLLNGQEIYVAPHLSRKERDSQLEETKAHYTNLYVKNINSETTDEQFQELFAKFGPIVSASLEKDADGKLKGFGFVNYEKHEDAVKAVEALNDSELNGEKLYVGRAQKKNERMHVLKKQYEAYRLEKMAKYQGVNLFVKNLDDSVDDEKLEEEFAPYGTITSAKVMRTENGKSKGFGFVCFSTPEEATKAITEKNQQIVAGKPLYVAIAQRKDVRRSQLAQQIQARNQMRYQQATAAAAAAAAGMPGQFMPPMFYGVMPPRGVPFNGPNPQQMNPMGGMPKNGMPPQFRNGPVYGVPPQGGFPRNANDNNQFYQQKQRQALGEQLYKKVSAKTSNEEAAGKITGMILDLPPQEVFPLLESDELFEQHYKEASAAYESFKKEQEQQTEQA

Q: Does AAAAAAAAAAAAAAAAAAA (ssRNA) [A19 RNA] bind?
A: Result: binds

Reference: publication PMC8857057
